The values below come from article PMC3268748, “A novel cold-active β-D-galactosidase from the Paracoccus sp. 32d - gene cloning, purification and characterization” (Microbial Cell Factories, 2011).

Substrate in the data set: O=[N+]([O-])c1ccccc1O[C@@H]1O[C@H](CO)[C@H](O)[C@H](O)[C@H]1O
The experiment in a line: purified protein. In kind it is biochemical, Paracoccus sp. 32d. The note with it: 20 °C, 20 mM sodium phosphate pH 7.3, apparent Km, also measured at 10 and 30 °C.

B1: BgaL; Paracoccus sp. 32d β-D-galactosidase (Paracoccus sp. 32d) (protein)
chain: MRVTQKLNHGWIFAEGAADPATPLAGETVTLPHNAVDLPLSYFDETSYQRAFTYQRVIAWDDAWQGRRVQLRFDGAMADNVVWVNGVQVVAHPDGYTPFVADLTDHLRPGDNLVTVRIDGSENPAIPPFGAQIDYLTYAGIYRDVWLMVLPERHLTNARILTPDALSDAKTVVIRPEVTAPGPVRARLLDGDREIAATEGEGELTLAGLTGLSLWSTDNPQLYTVELTLPDSGDVTTHRFGFRTAEWTPQGFLLNGQPMKLRGLNRHQSWAHQGYAAGRHAQERDAEIVRHDLCCNMVRTSHYPQSTWFLDRCDEIGLLVFEEIPGWQHIGDQAWQDRSVDNVRAMITRDWNHPSIVIWGVRINESPDNHDFYVRTNALARELDPTRAIGGVRCITDSEMLEDVYTMNDFILDESELPLINRPRTALRPTEEVTGIKKPVPYLVTEYNGHMFPTKAQDPELRQMEHVIRHLEVLNAAHGDPAISGCIGWCMFDYNTHKDFGAGDRICHHGVMDIWREPKFAAHAYGSQKPPSEGIVMEPVTFWARGERNIGGVLPLIVLTNCDEVEFECAGVTRRVGPDRERFPHLPRPPVIIDHRHISAEELGQWGMSWHPGRITGWLNGEQVALREYVADPLPTTLQIAPDRDTLPADGDIDLRVMLRALDQVGNRLPFLDAGIAVTVDGPARLIGPDLRMLQGGTTGMLLRLTGDAGTIRITARHPQFPEAVATVTVG
notes: E. coli LMG194, pBAD/Myc-His A with native stop codon (no tag), ion exchange purified; homodimer 161 kDa; GH2
The Km is the concentration of substrate that gives half-maximal velocity. For orientation: kcat means the maximal rate divided by the concentration of active sites. Broadly, the kcat/Km is the turnover number divided by the Michaelis constant. Take B1: the Km was determined as 1180 ± 60 µM, the kcat worked out at 138 ± 2.19 s⁻¹ and the catalytic efficiency (kcat/Km) turned out to be 117000 M⁻¹ s⁻¹.
